Target: human alpha-synuclein (wild-type, recombinant) (human)
Experiment: cell-based or functional assay

Sequence of Polo like kinase 2 (PLK2) (enzyme) (chain): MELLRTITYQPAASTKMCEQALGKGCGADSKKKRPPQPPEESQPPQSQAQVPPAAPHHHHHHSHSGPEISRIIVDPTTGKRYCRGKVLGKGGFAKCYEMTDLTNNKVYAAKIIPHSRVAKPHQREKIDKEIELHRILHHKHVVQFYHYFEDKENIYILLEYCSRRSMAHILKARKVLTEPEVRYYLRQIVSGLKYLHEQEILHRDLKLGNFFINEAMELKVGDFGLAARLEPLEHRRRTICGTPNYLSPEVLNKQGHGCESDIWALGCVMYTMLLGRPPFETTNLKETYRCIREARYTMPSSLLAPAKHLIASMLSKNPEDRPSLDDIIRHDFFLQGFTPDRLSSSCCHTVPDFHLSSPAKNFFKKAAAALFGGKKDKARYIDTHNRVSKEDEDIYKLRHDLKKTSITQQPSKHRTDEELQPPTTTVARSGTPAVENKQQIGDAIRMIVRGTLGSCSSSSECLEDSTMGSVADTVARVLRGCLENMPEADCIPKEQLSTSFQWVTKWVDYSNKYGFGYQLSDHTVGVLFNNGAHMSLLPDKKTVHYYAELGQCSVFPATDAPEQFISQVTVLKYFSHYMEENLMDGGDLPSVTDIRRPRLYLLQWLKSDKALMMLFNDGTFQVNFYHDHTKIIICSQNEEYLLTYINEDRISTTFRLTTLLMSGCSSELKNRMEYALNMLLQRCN
Sequence of G protein-coupled receptor kinase 6 (P43250 whole entry): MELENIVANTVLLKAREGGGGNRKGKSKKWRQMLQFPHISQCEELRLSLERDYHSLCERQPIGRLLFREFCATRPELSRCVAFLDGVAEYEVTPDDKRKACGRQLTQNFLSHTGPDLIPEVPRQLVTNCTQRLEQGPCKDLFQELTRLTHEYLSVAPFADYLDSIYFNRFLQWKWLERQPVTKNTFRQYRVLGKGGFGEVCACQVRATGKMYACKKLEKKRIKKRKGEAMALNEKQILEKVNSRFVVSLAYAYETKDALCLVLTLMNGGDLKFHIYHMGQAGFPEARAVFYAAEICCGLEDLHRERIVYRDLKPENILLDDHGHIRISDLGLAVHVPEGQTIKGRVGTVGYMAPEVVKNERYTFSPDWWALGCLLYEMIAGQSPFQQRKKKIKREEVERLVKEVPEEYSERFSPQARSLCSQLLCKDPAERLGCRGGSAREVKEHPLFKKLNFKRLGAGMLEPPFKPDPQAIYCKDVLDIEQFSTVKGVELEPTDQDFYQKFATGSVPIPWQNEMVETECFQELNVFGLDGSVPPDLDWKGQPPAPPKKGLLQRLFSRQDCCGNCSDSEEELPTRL
Sequence of Aortic preferentially expressed gene 1 (Q15772 other isoform, or with tags, fused parts or gaps limits assumed): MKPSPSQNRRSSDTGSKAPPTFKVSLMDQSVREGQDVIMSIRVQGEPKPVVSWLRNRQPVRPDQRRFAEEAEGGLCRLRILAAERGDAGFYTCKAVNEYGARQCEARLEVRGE
Sequence of CDC7 cell division cycle 7-like 1 (O00311 whole entry): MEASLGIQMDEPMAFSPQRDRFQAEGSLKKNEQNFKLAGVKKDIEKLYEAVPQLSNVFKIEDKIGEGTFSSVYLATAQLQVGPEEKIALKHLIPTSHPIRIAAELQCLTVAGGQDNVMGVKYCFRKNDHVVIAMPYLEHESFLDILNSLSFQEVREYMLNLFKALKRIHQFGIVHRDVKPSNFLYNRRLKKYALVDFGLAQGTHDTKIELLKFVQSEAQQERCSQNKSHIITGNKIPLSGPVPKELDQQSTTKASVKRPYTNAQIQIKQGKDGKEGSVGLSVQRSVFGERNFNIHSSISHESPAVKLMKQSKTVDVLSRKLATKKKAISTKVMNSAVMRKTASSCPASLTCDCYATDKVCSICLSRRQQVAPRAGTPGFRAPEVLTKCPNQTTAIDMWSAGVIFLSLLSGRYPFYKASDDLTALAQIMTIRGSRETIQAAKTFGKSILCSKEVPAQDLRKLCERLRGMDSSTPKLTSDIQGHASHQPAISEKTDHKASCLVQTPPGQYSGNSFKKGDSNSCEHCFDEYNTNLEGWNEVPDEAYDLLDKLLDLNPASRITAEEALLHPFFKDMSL

Substance | percentage of phospho-synuclein by ELISA, cDNA transfected into PEAK-Syn cells | percent phospho-synuclein by ELISA, cDNA transfected into PEAK-Syn cells | also measured
Aortic preferentially expressed gene 1 (from UniProt Q15772 1-113) (enzyme) | 8.9% |  | 
CDC7 cell division cycle 7-like 1 (from UniProt O00311 1-574) (enzyme) | 8.9% |  | 
G protein-coupled receptor kinase 6 (from UniProt P43250 1-576) (enzyme) |  | 18.9% | 
Polo like kinase 2 (PLK2) (enzyme) |  | 33.2% | percent phospho-synuclein by ELISA, PLK2 alone transfected into HEK-synuclein cells: 18.6%; percent phospho-synuclein by ELISA, PLK2 and synuclein co-transfected into naive HEK cells: 60%; percent synuclein phosphorylation by ELISA, PLK2 positive control in HEK-syn cells: 65.8%; phospho-synuclein by ELISA, PLK2 cDNA transfected into 293-synuclein cells: 4.3 fold

— US20110207796A1, “ALPHA-SYNUCLEIN KINASE” (Elan Pharma International Limited, priority 2008, published 2011)
